Test results reported in US20260035459A1 (AVA LIFESCIENCE, published 2026).
Numbering of substitutions follows the chain as printed.

B1: humanized anti-IGLV3-21^R110 antibody HC6-LC6 (antibody, human IgG1, V domains shown)
VH: QVQLQESGPGLVKPSETLSLTCTVSGFSLTSYGIHWIRQSPGRGLEWIGVIWRGGGTDSNAAFMSRVTISVDTSKSQVSLKLGSVTAADTAIYYCARSRYDEEESMNYWGQGTSVTVSS
VL: EIVLTQSPSSLSASVGDSVTITCRASGNIHSYLAWYQQKPGKAPKLLIYNAKTLADGVPSRFSGSGSGTQYTLTISSLQPEDFATYYCQHFWNTPPTFGAGTKLELK
notes: VH fused to a human IgG1 constant domain and VL to a human Ig kappa constant domain; Expressed in CHO cells
B2: humanized anti-IGLV3-21^R110 antibody HC6-LC8 (antibody, human IgG1, V domains shown)
VH: B1 VH
VL: EIVLTQSPATLSLSPGERATLSCRASGNIHSYLAWYQQKPGQAPRLLIYNAKTLADGIPARFSGSGSGTDYTLTISSLEPEDFASYYCQHFWNTPPTFGAGTKLELK
notes: Expressed in CHO cells
B3: humanized anti-IGLV3-21^R110 antibody HC7-LC6 (antibody, human IgG1, V domains shown)
VH: B1 VH with V67I, V71R, S76T
VL: B1 VL
notes: Expressed in CHO cells
B4: humanized anti-IGLV3-21^R110 antibody HC6-LC9 (antibody, human IgG1, V domains shown)
VH: B1 VH
VL: B2 VL with A9G, A60D, S77R, S85V
notes: Expressed in CHO cells
B5: humanized anti-IGLV3-21^R110 antibody HC6-LC7 (antibody, human IgG1, V domains shown)
VH: B1 VH
VL: B1 VL with E1Q, V3Q, S10F, K45Q, Q70E
notes: Expressed in CHO cells
B6: humanized anti-IGLV3-21^R110 antibody HC7-LC7 (antibody, human IgG1, V domains shown)
VH: B1 VH with V67I, V71R, S76T
VL: B1 VL with E1Q, V3Q, S10F, K45Q, Q70E
notes: Expressed in CHO cells
B7: humanized anti-IGLV3-21^R110 antibody HC7-LC9 (antibody, human IgG1, V domains shown)
VH: B1 VH with V67I, V71R, S76T
VL: B2 VL with A9G, A60D, S77R, S85V
notes: Expressed in CHO cells
B8: humanized anti-IGLV3-21^R110 antibody HC7-LC8 (antibody, human IgG1, V domains shown)
VH: B1 VH with V67I, V71R, S76T
VL: B2 VL
notes: Expressed in CHO cells

target: T1, soluble recombinant IGLV3-21^R110-harboring B-cell receptor, monomeric human IgM (170.5 kDa) (human); test: BLI (Fortebio Octet), antibody captured by anti-human IgG Fc, soluble BCR (monomeric IgM) as analyte, 1:1 model
T1 construct: Made in 293-HEK cells by transient expression and used as the analyte in BLI; also called soluble IGLV3-21^R110 B-cell receptor; soluble form of the IGLV3-21^R110 BCR
Text: In brief, to define the binding affinities of the antibodies to the IGLV3-21^R110-harboring B-cell receptor, a soluble recombinant version of the BCR (170.5 kDa; sequence according to SEQ ID NO: 52 for HC and 53 for LC) was produced in 293-HEK cell line as monomeric human IgM by transient expression using a protocol described in section 1.1 of this Example, and binding to immobilized anti-IGLV3-21^R110 antibodies was monitored by Bio-Layer Interferometry (BLI) on a Fortebio Octet instrument (Satorius). Kinetic assays were performed by first immobilizing the humanized anti IGLV3-21R110 antibodies onto biosensors through an indirect capturing reagent, anti-human lgG Fc antibody. Anti IGLV3-21^R110 antibodies were loaded at a concentration of 0.01875 μg/ml to generate an anti IGLV3-21^R110 antibody capture level of between 0.30 and 0.34 nm. A 9 nM BCR-fragment solution in running buffer (PBS, 0.02% Tween20, 0.1% BSA, 0.05% sodium acide) was prepared and serial diluted 1:3 to obtain 7 concentrations from 9 to 0.012 nM (9 nM, 3 nM, 1 nM, 0.333 nM, 0.111 nM, 0.037 nM, and 0.012 nM). The anti IGLV3-21 R110 antibody capture biosensors were then submerged in wells containing the different concentrations of the soluble BCR-fragment for 900 seconds (association stage) followed by a dissociation step of 1200 seconds in running buffer. Steps were performed at a constant shake speed of 1000 rpm. All reagents were used as described by the manufacturer. Sensorgrams were generated after double reference correction (buffer and blank sensors) to compensate for both the natural dissociation of the capture anti IGLV3-21^R110 antibody and also non-specific binding of the soluble BCR-fragment to the sensor surface. […] (KD) were calculated based on the ratio of association (ka) and dissociation rate (kd) constants, obtained by fitting sensorgrams with a first order 1:1 binding model using the Fortebio Data Analysis software (Satorius).

T1 sequence (heavy, as listed by the source limits assumed, chain 1 of 2): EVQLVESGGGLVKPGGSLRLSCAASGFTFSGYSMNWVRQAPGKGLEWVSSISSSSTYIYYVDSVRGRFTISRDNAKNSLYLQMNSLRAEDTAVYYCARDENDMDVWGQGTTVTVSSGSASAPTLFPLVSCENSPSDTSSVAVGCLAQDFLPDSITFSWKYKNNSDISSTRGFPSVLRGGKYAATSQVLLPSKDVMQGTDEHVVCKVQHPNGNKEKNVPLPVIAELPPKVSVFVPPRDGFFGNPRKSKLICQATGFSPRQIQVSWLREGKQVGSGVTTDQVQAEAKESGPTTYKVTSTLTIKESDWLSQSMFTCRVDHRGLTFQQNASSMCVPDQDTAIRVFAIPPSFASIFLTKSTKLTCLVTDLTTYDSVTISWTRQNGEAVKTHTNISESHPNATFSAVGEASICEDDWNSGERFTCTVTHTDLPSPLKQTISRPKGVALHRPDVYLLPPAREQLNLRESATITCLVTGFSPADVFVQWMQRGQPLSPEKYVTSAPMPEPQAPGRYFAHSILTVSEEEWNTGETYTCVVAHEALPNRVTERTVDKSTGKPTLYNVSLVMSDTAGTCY
T1 sequence (light, as listed by the source limits assumed, chain 2 of 2): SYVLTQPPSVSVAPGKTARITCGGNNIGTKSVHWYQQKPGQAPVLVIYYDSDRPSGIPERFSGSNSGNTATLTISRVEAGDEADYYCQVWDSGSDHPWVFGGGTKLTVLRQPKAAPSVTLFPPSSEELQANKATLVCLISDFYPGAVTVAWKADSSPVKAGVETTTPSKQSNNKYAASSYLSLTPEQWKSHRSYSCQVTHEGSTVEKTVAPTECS

| Kd [pM] | Binder |
| --- | --- |
| 211 | B1 |
| 277 | B2 |
| 175 | B3 |
| 291 | B4 |
| 347 | B5 |
| 269 | B6 |
| 313 | B7 |
| 249 | B8 |
